According to publication PMC5667893, “TRIM5α SPRY/coiled-coil interactions optimize avid retroviral capsid recognition” (PLoS Pathogens, 2017):
Substitutions are numbered along the chain they refer to. Names may count otherwise.

B1: CC-L2 fragment of rhesus TRIM5α (residues 133–300) E197A (domain or fragment, UniProt Q0PF16 133-300, looked up)
chain: MEEVAQEYHVKLQTALEMLRQKQQEAEKLEADIREEKASWKIQIDYDKTNVSADFEQLREILDWAESNELQNLEKEEEDILKSLTKSETEMVQQTQYMRELISELEHRLQGSMMDLLQGVDGIIKRIENMTLKKPKTFHKNQRRVFRAPDLKGMLDMFRELTDARRYW
notes: TRIM5α, rhesus, coiled-coil and L2 linker, residues 133-300; dimeric with a trailing shoulder of monomer by SEC-MALS; also called CC-L2 E197A; source: E. coli BL21(DE3), autoinduction, purified (Ni-NTA, anion exchange, size exclusion); not shown: His, N-terminal, cleaved; SUMO, N-terminal, cleaved
B2: CC-L2 fragment of rhesus TRIM5α (residues 133–300) E201A (domain or fragment, UniProt Q0PF16 133-300, looked up)
chain: B1 chain with A65E, E69A
notes: TRIM5α, rhesus, coiled-coil and L2 linker, residues 133-300; also called CC-L2 E201A; source: E. coli BL21(DE3), autoinduction, purified (Ni-NTA, anion exchange, size exclusion); not shown: His, N-terminal, cleaved; SUMO, N-terminal, cleaved
B3: CC-L2 fragment of rhesus TRIM5α (residues 133–300) I193A (domain or fragment, UniProt Q0PF16 133-300, looked up)
chain: B1 chain with I61A, A65E
notes: TRIM5α, rhesus, coiled-coil and L2 linker, residues 133-300; also called CC-L2 I193A; source: E. coli BL21(DE3), autoinduction, purified (Ni-NTA, anion exchange, size exclusion); not shown: His, N-terminal, cleaved; SUMO, N-terminal, cleaved
B4: CC-L2 fragment of rhesus TRIM5α (residues 133–300), wildtype (domain or fragment, UniProt Q0PF16 133-300, looked up)
chain: B1 chain with A65E
notes: TRIM5α, rhesus, coiled-coil and L2 linker, residues 133-300; His-SUMO leader cleaved with Ulp1 protease; also called TRIM5α_(133–300); wildtype control; source: E. coli BL21(DE3), autoinduction, purified (Ni-NTA, anion exchange, size exclusion); not shown: His, N-terminal, cleaved; SUMO, N-terminal, cleaved
B5: CC-L2 fragment of rhesus TRIM5α (residues 133–300) D186A (domain or fragment, UniProt Q0PF16 133-300, looked up)
chain: B1 chain with D54A, A65E
notes: TRIM5α, rhesus, coiled-coil and L2 linker, residues 133-300; also called CC-L2 D186A; source: E. coli BL21(DE3), autoinduction, purified (Ni-NTA, anion exchange, size exclusion); not shown: His, N-terminal, cleaved; SUMO, N-terminal, cleaved

Assays:
[1] = biological target: disulfide-stabilized HIV-1 CA tubes (HIV-1); assay: co-sedimentation; purified TRIM5-21R (5 μM) incubated with disulfide-stabilized HIV-1 CA tubes, fractionated by centrifugation, load, soluble and pellet fractions on SDS-PAGE with Coomassie staining, densitometry; done right after purification
[2] = biological target: TRIM5-21R L190A (human | rhesus); assay: anion exchange chromatography + SEC; relative fractions of monomer and dimer of TRIM5-21R proteins during purification; linear salt gradient; dimer to monomers
[3] = biological target: TRIM5-21R F187A (human | rhesus); assay: as above
[4] = biological target: the molecule itself; assay: SEC-MALS; purified CC-L2 proteins, 50 μL injected at 0.5–1 mg/mL; dimer to monomers

| Molecule | percent in the pellet with the CA tubes [1] | stoichiometry N [4] | further results |
| --- | --- | --- | --- |
| TRIM5-21R L194A | 29% |  |  |
| TRIM5-21R L190A | 34% |  | monomer fraction of the total protein [2]: > 50% |
| TRIM5-21R (rhesus TRIM5α with its RING domain replaced by that of human TRIM21), wildtype |  |  | percent co-pelleted with the CA tubes [1]: 50% |
| TRIM5-21R D186A | 36% |  |  |
| TRIM5-21R F187A |  |  | monomer fraction of the total protein [3]: > 50% |
| TRIM5-21R E197A | 61% |  |  |
| B1 |  | 2 |  |
| B2 |  | 2 |  |
| B3 |  | 2 |  |
| B4 |  | 2 |  |
| B5 |  | 2 |  |
